The target of assay [1] is full-length ATF4 (pCEP-ATF4) (UniProt P18848). As to the kind of experiment: cell-based or functional assay.
The target in assay [2] is endogenous ATF4 of HEK293T cells (UniProt P18848). Kind of assay: cell-based or functional assay.
endogenous ATF4 of HEK293T cells, sequence (P18848 whole entry): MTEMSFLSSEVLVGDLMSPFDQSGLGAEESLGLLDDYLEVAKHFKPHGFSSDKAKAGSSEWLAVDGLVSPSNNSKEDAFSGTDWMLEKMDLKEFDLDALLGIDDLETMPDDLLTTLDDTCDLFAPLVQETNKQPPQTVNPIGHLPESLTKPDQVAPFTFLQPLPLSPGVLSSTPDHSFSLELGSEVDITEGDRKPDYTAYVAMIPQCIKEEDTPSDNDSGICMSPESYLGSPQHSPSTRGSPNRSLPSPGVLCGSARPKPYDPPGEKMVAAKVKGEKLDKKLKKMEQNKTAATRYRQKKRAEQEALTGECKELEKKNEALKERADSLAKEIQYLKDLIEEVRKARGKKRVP

full-length ATF4 (pCEP-ATF4), sequence (P18848 whole entry): as above

With “myc-tagged full-length human NPHP6 (pCJW206-Cep290) (from UniProt O15078 1-2479)”, in assay [1], the reporter activity (dual-luciferase reporter construct for ATF4, pCRE-ATF4×2, in HEK293T cells), compared to empty vector pCEP4F stood at 9.7 fold and the reporter activity (pCRE-ATF4×2, HEK293T cells) with either construct alone, compared to empty vector pCEP4F came to 2 fold.
“endogenous NPHP6 of HEK293 / HEK293T cells (from UniProt O15078 1-2479)”: in assay [2], the reporter activity (pCRE-ATF4X2, HEK293T cells) after knock-down of NPHP6 with pTER-NPHP6, compared to empty vector was 75.4%.

For the origin of these results see patent publication US7838231.
